Assay [1] concerns the target human factor B (human) (UniProt P00751). Kind of assay: cell-based or functional assay.
The target in assay [2] is Ba protein (Ba fragment of factor B) (human) (UniProt P00751). Kind of assay: ELISA; antibody titrated on Ba-coated wells.
Assay [3] addresses human factor B (human) (UniProt P00751). Kind of assay: competition ELISA; Anti-Ba varied, factor B binding to C3b-coated plates.
Assay [4] shares this target. The assay is described as follows: competition ELISA; Anti-Ba varied, factor B binding to properdin-bound C3b on plates.
For assay [5] the target is unchanged. The assay is described as follows: competition ELISA; Anti-Ba varied, factor B binding to C3b or properdin-bound C3b; range told for both formats.

The pKd is the Kd on a negative log10 scale, so that one unit is a factor of ten. Read a low pKd as a large Kd. A word on the pIC50: it is the negative decadic logarithm of the IC50, by convention in mol/L. Low values mean a high IC50, high ones a low IC50.

pIC50, pKd: −log10 of the molar value.

Sequence of human factor B (human) (P00751 other isoform, or with tags, fused parts or gaps limits assumed): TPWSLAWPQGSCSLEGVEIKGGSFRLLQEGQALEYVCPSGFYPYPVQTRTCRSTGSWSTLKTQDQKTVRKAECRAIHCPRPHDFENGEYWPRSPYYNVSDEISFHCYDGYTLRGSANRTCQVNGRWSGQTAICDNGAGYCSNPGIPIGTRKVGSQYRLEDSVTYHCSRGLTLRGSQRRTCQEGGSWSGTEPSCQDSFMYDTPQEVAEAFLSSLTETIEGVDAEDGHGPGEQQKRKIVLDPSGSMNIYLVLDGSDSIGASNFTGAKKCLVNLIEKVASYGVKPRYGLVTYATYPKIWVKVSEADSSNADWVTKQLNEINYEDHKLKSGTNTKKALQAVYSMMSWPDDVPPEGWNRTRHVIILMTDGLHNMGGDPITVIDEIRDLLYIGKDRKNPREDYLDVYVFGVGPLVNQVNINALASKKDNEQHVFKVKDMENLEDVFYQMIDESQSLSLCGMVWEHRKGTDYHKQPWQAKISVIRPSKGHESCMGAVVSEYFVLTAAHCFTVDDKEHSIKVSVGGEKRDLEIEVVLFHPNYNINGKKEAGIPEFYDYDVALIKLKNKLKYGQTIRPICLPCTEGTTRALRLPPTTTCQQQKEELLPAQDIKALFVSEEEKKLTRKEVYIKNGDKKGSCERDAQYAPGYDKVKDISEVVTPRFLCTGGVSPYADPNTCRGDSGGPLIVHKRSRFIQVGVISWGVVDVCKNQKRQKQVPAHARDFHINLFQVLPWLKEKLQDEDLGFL
Sequence of Ba protein (Ba fragment of factor B) (human) (P00751 other isoform, or with tags, fused parts or gaps limits assumed): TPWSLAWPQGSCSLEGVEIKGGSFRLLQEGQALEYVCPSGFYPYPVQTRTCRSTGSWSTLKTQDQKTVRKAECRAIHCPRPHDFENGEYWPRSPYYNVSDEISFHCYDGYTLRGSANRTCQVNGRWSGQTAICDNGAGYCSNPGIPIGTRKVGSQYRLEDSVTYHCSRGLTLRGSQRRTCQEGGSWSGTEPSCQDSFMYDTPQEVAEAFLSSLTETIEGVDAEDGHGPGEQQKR

“anti-factor Ba monoclonal antibody (Quidel A225, murine)”: the Inhibition of C5b-9 formation in normal human serum on LPS coated plates (AP dependent C3-convertase formation) with human factor B (human) [1] stood at 527 nM. Also, the Inhibition of alternative pathway-dependent hemolysis of rabbit erythrocytes in 10% normal human serum with human factor B (human) [1] is 125 µg/mL. This substance also showed a pKd in assay [2] of 8.02. For the same substance, the pIC50 with human factor B (human) [3] was 6.25; with human factor B (human) [4] it was 6.63; in the assay with human factor B (human) [5], 6.30 to 6.70.

(Values after patent US20100015139A1.)
